According to paper doi:10.1101/2024.07.12.603331:

Target: HAstV8 spike protein VP25 (residues S484 to R708) (human astrovirus 8 (HAstV8))
Assay: BLI

Chain of neonatal Fc receptor (FcRn), recombinant ectodomains (P55899 24-297): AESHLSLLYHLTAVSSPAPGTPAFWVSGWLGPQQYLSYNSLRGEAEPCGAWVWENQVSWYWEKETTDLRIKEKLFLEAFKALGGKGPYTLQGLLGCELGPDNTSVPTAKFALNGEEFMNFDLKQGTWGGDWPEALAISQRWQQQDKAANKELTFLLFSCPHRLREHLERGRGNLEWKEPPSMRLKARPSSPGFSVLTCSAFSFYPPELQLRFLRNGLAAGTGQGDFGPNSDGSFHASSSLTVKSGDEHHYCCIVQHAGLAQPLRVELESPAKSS
Chain of neonatal Fc receptor (FcRn), recombinant ectodomains (P61769 21-119): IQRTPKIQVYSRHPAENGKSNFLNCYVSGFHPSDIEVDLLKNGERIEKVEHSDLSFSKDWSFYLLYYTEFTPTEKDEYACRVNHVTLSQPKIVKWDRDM
Chain of HAstV8 spike protein VP25 (residues S484 to R708) (human astrovirus 8 (HAstV8)) (Q9IFX1 424-648 limits assumed): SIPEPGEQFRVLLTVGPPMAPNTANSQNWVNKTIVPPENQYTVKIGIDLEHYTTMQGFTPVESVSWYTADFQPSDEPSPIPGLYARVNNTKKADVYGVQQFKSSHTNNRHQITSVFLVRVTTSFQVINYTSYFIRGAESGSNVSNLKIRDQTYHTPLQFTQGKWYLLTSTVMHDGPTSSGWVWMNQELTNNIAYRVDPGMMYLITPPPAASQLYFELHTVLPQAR

## neonatal Fc receptor (FcRn), recombinant ectodomains (from UniProt P55899;P61769) (complex)
  Kd: 623 nM
  half-life: 4.68 s
